The results in this text go back to the supplement of paper PMC6755084.

B1: minF1; a variant is named by its letters at N, in order (parent)
chain: GAGACCGCAACTGAAAAGTTGTTNNNNAANNNNNGGNTNAATTTCTGCACGTAGAAGCAAAAGGC

Variants of B1 are the subject of the data set. Kind of data set: fraction ligated after 30 min (ligated reads / total reads); higher = more ligase activity. The conditions noted are these: with F1*subA RNA substrate (template-directed ligation), 42 °C. A digest of the protocol: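 Using barcoded primers for reverse transcription and a MiSeq for sequencing, gel-separated ligated and unligated RNAs of minimized ligase ribozyme variants were read, with core-base filtering at quality ≥30. Fraction ligated per variant was defined as ligated reads over total reads.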
Turning to ATCAAATGGGT A28G, the fraction ligated stood at 0.00311.

For the variant ACAGATGTGTG, the fraction ligated came out at 0.00297.

With ACGATGGTGTG, the fraction ligated stood at 0.00555.

As for ATCAATGGAGT A28G G35T A40G, the fraction ligated worked out at 0.0474.

Consider TCAGAGATGTG, for which the fraction ligated came to 0.00161.

Regarding ATAGAGATGTG, the fraction ligated was 0.00202.

On to ATCAAGGATGT A28G A40G, for which the fraction ligated was 0.0268.

As for CAAAGGATGTG T23A A29T, the fraction ligated was determined as 0.00472.

For AAGATGGATTG, the fraction ligated amounted to 0.00494.

Consider ATAGAGGATTG, for which the fraction ligated is 0.00226.

Take TCGATGGTGTG T23A: the fraction ligated was found to be 0.00501.

In the case of ACAGATGGATG, the fraction ligated was 0.000541.

With ATCAATGGATG, the fraction ligated worked out at 0.00435.

On to ATCAATGGAGT A28G, for which the fraction ligated is 0.00328.

ACAGATGGAGT A40G: the fraction ligated came out at 0.00662.

As for TCAGAGGATGT T23A, the fraction ligated turned out to be 0.00218.

Turning to ATCAATGGAGT A28G G35T T38G A40T, the fraction ligated came to 0.00109.

With TCAGTGGATTG, the fraction ligated came out at 0.0102.

As for TCGATGGAGTG T23A, the fraction ligated was found to be 0.00843.

Take TCAGATGGTGT T23A A40G: the fraction ligated is 0.00684.

As to CAGATGGATGT, the fraction ligated was 0.00272.

ATCGAGGATTG: the fraction ligated turned out to be 0.00198.

With ATCAGGATGTG A28G, the fraction ligated amounted to 0.00911.

On to TCAGATGAGTG, for which the fraction ligated is 0.00318.

Consider ATCAAATGGGT A28G G35A, for which the fraction ligated was determined as 0.00387.

As for ACGATGGAGTG, the fraction ligated stood at 0.00302.

Consider TCAGTGGATGT A40G, for which the fraction ligated worked out at 0.0137.

As for TCGATGGATGT, the fraction ligated came to 0.0171.

Regarding ATAGATATGTG, the fraction ligated was 0.00482.

On to ATCAATGATGT A28G A40G, for which the fraction ligated was 0.0266.

For the variant ATCAAATGAGT A28G A40G, the fraction ligated stood at 0.00391.

Turning to ATCGATGGAGT A40G, the fraction ligated is 0.00946.

For the variant ATCGAGGTGTG, the fraction ligated was 0.00503.

As to TAAAGGATGTG A29T, the fraction ligated came out at 0.00359.

As to CAGAGGATGTG T23A, the fraction ligated was 0.00547.

For the variant TCAATGGATGT T23A, the fraction ligated was determined as 0.00522.

For the variant ATCAAAGGAGT A28G G35T T38G A40T A41G, the fraction ligated came out at 0.00104.

Regarding ATCGAGATGTG, the fraction ligated turned out to be 0.00673.

In the case of ATCAATGGAGT A28G G35T T38G A40T A41G, the fraction ligated was found to be 0.00208.

Take ATAGATGGAGT A40G: the fraction ligated is 0.00598.

Turning to ATCAAAGGAGT A28G G35T T38G A40T, the fraction ligated was determined as 0.00242.

As to ATAGATGGAGT G35T A40G, the fraction ligated worked out at 0.0113.

Take ATCAAATGATG A28G: the fraction ligated worked out at 0.00241.

Take ATCAATGGGTG: the fraction ligated came out at 0.0045.

On to ATAGATGGAGT G35T T38G A40T, for which the fraction ligated was found to be 0.000429.

As to ATCGTGGATGT A40G, the fraction ligated stood at 0.0919.

With ATCAATGTGTG, the fraction ligated was 0.0057.

In the case of ACAGAGGATGT A40G, the fraction ligated worked out at 0.00295.

ATCAAAGGTGT A28G A40G: the fraction ligated came out at 0.00781.

ATCAAAGAGTG A28G: the fraction ligated was found to be 0.00276.

Regarding TCAGTGGATGT T23A A40G, the fraction ligated amounted to 0.0264.

Regarding ATCAAAGGTTG A28G, the fraction ligated came to 0.0026.

Turning to ATCAATGATGT, the fraction ligated was 0.00391.

Regarding TCAGAGATGTG T23A, the fraction ligated came to 0.00422.

For TAGATGGAGTG, the fraction ligated stood at 0.0023.

Regarding ATAGGGATGTG, the fraction ligated turned out to be 0.00301.

Consider TCAATGGATTG, for which the fraction ligated was determined as 0.0203.

As for ATCAAAATGTG A28G, the fraction ligated stood at 0.00354.

For the variant ATAGGGATGTG A29T, the fraction ligated stood at 0.0314.

Turning to CAGATGGAGTG, the fraction ligated is 0.00344.

Consider ATCAAATGAGT A28G, for which the fraction ligated turned out to be 0.00227.

With ATAGATGGAGT G35T, the fraction ligated was determined as 0.00557.

ATCAATGGAGT G35T T38G A40T: the fraction ligated was 0.00324.

In the case of ATCGATGGTGT A40G, the fraction ligated turned out to be 0.0134.

For the variant ATCAATGGATG A28G, the fraction ligated was 0.00279.

Regarding ATCAAAGGAGT A28G G35T A40G, the fraction ligated came to 0.00529.

As to ATCAAATGTTG A28G, the fraction ligated was found to be 0.00332.

With ATCAAATGGGT A28G G35T A40G, the fraction ligated was 0.00694.

In the case of TCAGAGGAGTG T23A, the fraction ligated amounted to 0.

For ATCAAATGAGT A28G G35T A40G, the fraction ligated was determined as 0.0046.

In the case of TCAAGGATGTG A29T, the fraction ligated was 0.00599.

With ACAGAGGAGTG, the fraction ligated is 0.00131.

Turning to CAGAGGATGTG, the fraction ligated came to 0.00332.

On to TCAATGATGTG T23A, for which the fraction ligated was determined as 0.00128.

Consider ACAGTGATGTG, for which the fraction ligated is 0.00182.

Consider ATCAATATGTG, for which the fraction ligated is 0.00461.

For the variant ATCAAGGAGTG A28G, the fraction ligated is 0.00604.

With ATCAATGGTGT, the fraction ligated came out at 0.00377.

Regarding ATCGATGGATG, the fraction ligated amounted to 0.00346.

Turning to ATCAATGGTGT A28G A40G, the fraction ligated was determined as 0.00763.

Take TAAAGGATGTG T23A A29T: the fraction ligated turned out to be 0.00526.

ACAGAGGATTG: the fraction ligated came out at 0.0039.

As to ATCGATGAGTG, the fraction ligated came to 0.00373.

As for ATCGGGATGTG A29T, the fraction ligated was determined as 0.045.

On to ATCATGGATGT, for which the fraction ligated worked out at 0.00625.

For the variant TCAATGGATGT T23A A40G, the fraction ligated is 0.00963.

ATCAATGGAGT G35T T38G A40T A41G: the fraction ligated stood at 0.00079.

Consider ATGATGGATGT A40G, for which the fraction ligated turned out to be 0.0235.

For ACAGATGGAGT, the fraction ligated turned out to be 0.00252.

Take TCGATGGATGT A40G: the fraction ligated amounted to 0.0635.

Turning to TCAGATGGAGT, the fraction ligated was determined as 0.00402.

Consider ATAGATGTGTG, for which the fraction ligated worked out at 0.00472.

With ATCAATGGAGT G35T, the fraction ligated was 0.0137.

With ATCGATGGGTG, the fraction ligated turned out to be 0.

On to ATAGTGGATGT, for which the fraction ligated is 0.0055.

Consider TCAGATGAGTG T23A, for which the fraction ligated came out at 0.00316.

ATCATGGATTG: the fraction ligated came out at 0.00725.

Consider TCAAGGATGTG T23A A29T, for which the fraction ligated worked out at 0.00621.

Consider TCAGTGATGTG T23A, for which the fraction ligated is 0.00342.

Regarding ATCAAATAGTG A28G, the fraction ligated turned out to be 0.00491.

In the case of TCGATGATGTG, the fraction ligated was determined as 0.00384.

With ATAGTGGATTG, the fraction ligated came to 0.00612.

For the variant ATCAATGATGT A28G, the fraction ligated worked out at 0.00479.

As to ACAGTGGAGTG, the fraction ligated worked out at 0.00292.

In the case of TCAATGGATGT, the fraction ligated came out at 0.00761.
